In paper doi:10.1101/2021.04.07.438849 (bioRxiv, 2021):

Molecular target: T1, NTD of the SARS-CoV-2 spike protein (SARS-CoV-2 Wuhan-Hu-1, UniProt P0DTC2)
T1 construct: also called N-terminal domain
Assay: ELISA
Details: both partners purified

B1: 8–131 (antibody, V domains shown)
VH: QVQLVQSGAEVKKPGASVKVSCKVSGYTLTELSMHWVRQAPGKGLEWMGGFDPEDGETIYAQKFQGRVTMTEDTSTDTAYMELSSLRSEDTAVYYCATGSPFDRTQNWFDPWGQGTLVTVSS
VL: QSVVTQPPSVSAAPGQKVTISCSGSRSNIGNNYVSWYQQLPGTAPKLLIYDYDKRPSGIPDRFSGSKSGTSATLGITGLQTGDEADYYCGTWDNSLSAGVFGGGTRLTVL
- binding result: binds
